Results: patent publication US7138236

Tested on: p53, unphosphorylated (recombinant full-length)

Row | Substance | in vitro kinase assay (32P incorporation, autoradiography) | phosphorylation site mapping (tryptic/Asp-N peptides, Edman degradation) | kinase assay of chromatographic fractions, Western blot with p53 Ser15-specific antibodies
1 | ATM (A-T mutated) protein purified from HeLa cell nuclear extract | several independently purified ATM preparations were consistently found to phosphorylate p53 with high efficiency | the sites of phosphorylation correspond to p53 residues Ser-15 and Thr-18 | 
2 | ATR (FRP-1) purified from HeLa nuclear extract |  |  | this residue is also phosphorylated by a kinase activity associated with ATR
